The target in the series is T1, DiCas7-11 D429A/D654A (Desulfonema ishimotonii, D429A,D654A).
T1 chain: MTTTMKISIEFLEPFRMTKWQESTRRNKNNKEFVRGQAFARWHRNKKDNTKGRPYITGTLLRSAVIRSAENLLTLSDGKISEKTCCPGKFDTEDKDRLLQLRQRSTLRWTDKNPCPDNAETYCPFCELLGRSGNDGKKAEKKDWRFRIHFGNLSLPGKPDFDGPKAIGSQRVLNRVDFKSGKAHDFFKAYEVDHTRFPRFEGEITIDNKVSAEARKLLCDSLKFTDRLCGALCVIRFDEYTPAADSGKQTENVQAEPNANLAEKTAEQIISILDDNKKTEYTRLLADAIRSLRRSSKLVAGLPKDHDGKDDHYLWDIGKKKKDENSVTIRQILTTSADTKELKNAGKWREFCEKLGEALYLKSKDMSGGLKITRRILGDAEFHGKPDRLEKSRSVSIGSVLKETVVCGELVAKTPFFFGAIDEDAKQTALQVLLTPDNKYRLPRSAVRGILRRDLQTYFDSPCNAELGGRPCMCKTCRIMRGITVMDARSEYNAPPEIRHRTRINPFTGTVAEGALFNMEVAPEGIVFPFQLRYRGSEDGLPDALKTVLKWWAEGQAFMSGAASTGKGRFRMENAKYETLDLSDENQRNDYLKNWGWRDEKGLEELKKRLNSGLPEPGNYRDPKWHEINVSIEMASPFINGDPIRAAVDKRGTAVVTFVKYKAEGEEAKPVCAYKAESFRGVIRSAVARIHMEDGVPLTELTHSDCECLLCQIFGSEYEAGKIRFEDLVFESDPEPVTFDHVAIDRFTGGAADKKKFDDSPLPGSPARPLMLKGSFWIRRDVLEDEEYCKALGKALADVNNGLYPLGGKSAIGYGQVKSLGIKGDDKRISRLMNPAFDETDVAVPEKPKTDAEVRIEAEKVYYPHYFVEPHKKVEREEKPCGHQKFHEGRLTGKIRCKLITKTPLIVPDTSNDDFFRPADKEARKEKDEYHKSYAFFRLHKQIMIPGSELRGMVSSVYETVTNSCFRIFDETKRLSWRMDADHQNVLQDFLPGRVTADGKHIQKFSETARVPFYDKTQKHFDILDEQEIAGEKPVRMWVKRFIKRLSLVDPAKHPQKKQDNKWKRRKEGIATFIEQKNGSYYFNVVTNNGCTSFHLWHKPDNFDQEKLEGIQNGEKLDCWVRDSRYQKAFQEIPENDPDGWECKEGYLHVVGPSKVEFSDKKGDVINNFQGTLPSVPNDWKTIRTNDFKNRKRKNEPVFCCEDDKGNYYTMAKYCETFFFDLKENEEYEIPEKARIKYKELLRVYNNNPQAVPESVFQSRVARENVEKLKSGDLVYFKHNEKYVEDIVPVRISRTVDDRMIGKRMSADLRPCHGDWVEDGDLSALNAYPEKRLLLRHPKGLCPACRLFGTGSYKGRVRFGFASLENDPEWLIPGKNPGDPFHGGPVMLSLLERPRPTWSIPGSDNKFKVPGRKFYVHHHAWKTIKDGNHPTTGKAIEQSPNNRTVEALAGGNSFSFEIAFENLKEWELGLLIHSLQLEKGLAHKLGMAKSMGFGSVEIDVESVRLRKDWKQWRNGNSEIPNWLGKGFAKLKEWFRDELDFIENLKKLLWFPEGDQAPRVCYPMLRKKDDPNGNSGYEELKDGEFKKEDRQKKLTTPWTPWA
Kind of series: structure; cryo-EM 2.45 A, PDB 7WAH; 20 mM Hepes pH 7.0, 150 mM NaCl, 2 mM MgCl2; target pairs with crRNA 1-23 except flipped 4 and 10. The following applies: tags: N-terminal MBP, C-terminal His6. Here is the method: A Cas7-11-crRNA-target RNA complex was reconstituted by mixing the purified MBP-Cas7-11 protein, the 39-nucleotide crRNA, and the 25-nucleotide target RNA, at a molar ratio of 1:1.2:1.5. The complex was purified by size-exclusion chromatography on a Superose6 Increase 10/300 column (GE Healthcare), equilibrated with the buffer containing 20 mM Hepes-NaOH, pH 7.0, 150 mM NaCl, 2 mM MgCl₂, and 1 mM DTT. The peak fraction containing Cas7-11-:crRNA-target RNA complex was concentrated to 1.5 A260 units using an Amicon Ultra-4 filter (10 kDa molecular-weight cutoff; Millipore). The samples (3 μl) were then applied to freshly glow-discharged Au 300 mesh R1.2/1.3 grids (Quantifoil) in a Vitrobot Mark IV (FEI) at 4° C. with a waiting time of 10 sec and a blotting time of 4 sec under 100% humidity conditions. The grids were plunge-frozen into liquid ethane cooled at liquid nitrogen temperature.
A model was built using Nautilus and Buccaneer in CCP-EM package and manually built using COOT against the density map sharpened using DeepEMhancer. […] The curve representing model vs. full map was calculated using phenix.mtriage, based on the final model and the full, filtered, and sharpened map. The cryo-EM density maps were calculated with UCSF ChimeraX, and molecular graphics figures were prepared with CueMol (http://www.cuemol.org).

B1: crRNA for structural analysis ; target RNA for structural analysis (ssRNA ; ssRNA)
RNA 1: GGUGAUGUCACGGAACCUUUGUUGUCUUCGACAUGGGUAAU
RNA 2: GGAUUACCCAUGUCGAAGACAACAAAG
For B1, the binding result is recorded as “binds”.
